The values below come from paper PMC5010959.

“And” between values parts separate entries of the source, which are not always exact repeats. Equal entries are not always repeated.

By IC50 is commonly meant the concentration that inhibits the measured activity by half. High values mean weaker potency in that assay, low ones greater potency in that assay. Usually Ki stands for a dissociation constant, usually derived from enzyme kinetics or from competition with a known ligand. One may read the Kd as the free concentration of one partner at which half of the binding sites on the other are occupied at equilibrium, for simple one-to-one binding.

Data set [1] deals with T1, BoNT/A light chain (LCA) (Clostridium botulinum type A, UniProt P0DPI1 2-448).
Data set [2] deals with T1, BoNT/A light chain (LCA). The data set is described as follows: SPR. For orientation: Surface plasmon resonance follows binding to a sensor surface in real time, without labels.

T1 sequence (P0DPI1 2-448): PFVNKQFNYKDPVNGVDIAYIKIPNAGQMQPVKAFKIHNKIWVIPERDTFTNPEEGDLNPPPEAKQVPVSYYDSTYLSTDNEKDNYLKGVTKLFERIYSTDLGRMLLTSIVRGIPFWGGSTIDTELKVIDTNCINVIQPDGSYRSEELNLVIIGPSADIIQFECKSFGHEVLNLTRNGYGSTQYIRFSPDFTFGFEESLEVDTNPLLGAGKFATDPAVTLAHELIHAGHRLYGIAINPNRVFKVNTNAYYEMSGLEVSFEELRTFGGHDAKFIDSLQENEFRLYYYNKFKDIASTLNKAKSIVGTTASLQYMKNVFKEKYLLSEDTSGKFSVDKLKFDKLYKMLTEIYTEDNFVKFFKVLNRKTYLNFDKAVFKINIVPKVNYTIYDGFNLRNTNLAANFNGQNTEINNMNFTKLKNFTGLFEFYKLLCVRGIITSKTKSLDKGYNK

B1: TW1 2'-F modified (XNA)
RNA: GGGUACCCACUCAGGUACGAUUGGUGCGAUAAACUAGACUCGUCAUGCGCAGUCUCCUACAGCUUUCUAGAAUUAAGCUUAGGC
modifications: 2'-fluoro pyrimidines (C and U)
As to B1, in the data set with BoNT/A light chain (LCA) [1], half-maximal inhibition (IC50) was put at 639 ± 13 nM; the Ki was 433 nM and 720 nM. Besides, the Kd with BoNT/A light chain (LCA) [2] worked out at 31.4 ± 4.4 nM.

B2: TW1 unmodified (structured_RNA)
RNA: B1 RNA
B2: in the data set with BoNT/A light chain (LCA) [2], the Kd was 109 ± 9.9 nM.

B3: TW3 2'-F modified (XNA)
RNA: GGGUACCCACUCAGGUACGUGGGAAUUGAGCGGGUCACACUAUAAGCACGAGCCUUAGACAGCUUUCUAGAAUUAAGCUUAGGC
modifications: 2'-fluoro pyrimidines (C and U)
Turning to B3, in the data set with BoNT/A light chain (LCA) [1], the IC50 came out at 727 ± 12 nM; the Ki is 463 nM and 849 nM. The Kd with BoNT/A light chain (LCA) [2] stood at 27.9 ± 4.3 nM.

B4: TW3 unmodified (structured_RNA)
RNA: B3 RNA
Turning to B4, the Kd with BoNT/A light chain (LCA) [2] is 59.1 ± 7.3 nM.
